{"source": "patent US20180291083A1", "molecular_target": "HLA-B*07:02 (human)", "assay": "UV ligand exchange ELISA; exchange yield grade", "conditions": "remark: other sources report otherwise"}
{"binder": "YPGWHSTTI", "note": "[…]", "values": [{"measurement": "peptide exchange yield", "result": "20 to 50", "unit": "%"}]}
